The values that follow come from US20030017596A1.

The assay has as its target Recombinant B19 parvovirus empty capsid particles (VP1/2) (B19 parvovirus) (UniProt P07299). Nature of the assay: cell-based or functional assay.

Regarding “anti-B19 parvovirus monoclonal antibody (MAB8292)”, the BFU-E colony counts (% of medium control), fetal liver cells; capsid 7 µg/ml + 0.02 µg/mL Mab (capsid only: 43%) (% of medium control) came out at 52; the BFU-E colony counts (% of medium control), fetal liver cells; capsid 7 µg/ml + 0.2 µg/mL Mab (capsid only: 43%) (% of medium control) turned out to be 52; the BFU-E colony counts (% of medium control), fetal liver cells; capsid 7 µg/ml + 2.0 µg/mL Mab (capsid only: 43%) (% of medium control) worked out at 69; the BFU-E colony counts (% of medium control), fetal liver cells; capsid 7 µg/ml + 20.0 µg/mL Mab (capsid only: 43%) (% of medium control) was above 100. In addition, the CFU-GEMM colony counts (% of medium control), fetal liver cells; capsid 7 µg/ml + 0.02 µg/mL Mab (capsid only: 21%) (% of medium control) is 21; the CFU-GEMM colony counts (% of medium control), fetal liver cells; capsid 7 µg/ml + 0.2 µg/mL Mab (capsid only: 21%) (% of medium control) was determined as 19; the CFU-GEMM colony counts (% of medium control), fetal liver cells; capsid 7 µg/ml + 2.0 µg/mL Mab (capsid only: 21%) (% of medium control) worked out at 45; the CFU-GEMM colony counts (% of medium control), fetal liver cells; capsid 7 µg/ml + 20.0 µg/mL Mab (capsid only: 21%) (% of medium control) is 67. For the same substance, the CFU-GM colony counts (% of medium control), fetal liver cells; capsid 7 µg/ml + 0.02 µg/mL Mab (capsid only: 30%) (% of medium control) was 30; the CFU-GM colony counts (% of medium control), fetal liver cells; capsid 7 µg/ml + 0.2 µg/mL Mab (capsid only: 30%) (% of medium control) was 21; the CFU-GM colony counts (% of medium control), fetal liver cells; capsid 7 µg/ml + 2.0 µg/mL Mab (capsid only: 30%) (% of medium control) was 35; the CFU-GM colony counts (% of medium control), fetal liver cells; capsid 7 µg/ml + 20.0 µg/mL Mab (capsid only: 30%) (% of medium control) is 74.
